# Results published in the supplement of paper PMC7877785.
# ± gives the uncertainty stated by the source.
# Test: self-splicing fitness, log relative to wild type (ln ratio); higher = more splicing; Tetrahymena group I intron in knt gene, E. coli kanamycin selection, DiMSum; sequences stand for … in CUCUCU…GGAGGGAAAAGUUAUCAGGCAUGCACCUGGUAGCUAGUCUUUAAACCAAUAGAUUGCAUCGGUUUAAAAGGCAAGACCGUCAAAUUGCGGGAAAGGGGUCAACAGCCGUUCAGUACCAAGUCUCAGGGGAAACUUUGAGAUGGCCUUGCAAAGGGUAUGGUAAUAAGCUGACGGACAUGGUCCUAACCACGCAGCCAAGUCCUAAGUCAACAGAUCUUCUGUUGAUAUGGAUGCAGUUCACAGACUAAAUGUCGGUCGGGGAAGAUGUAUUCUUCUCAUAAGAUAUAGUCGGACCUCUCCUUAAUGGGAGCUAGCGGAUGAAGUGAUGCAACACUGGAGCCGCUGGGAACUAAUUUGUAUGCGAAAGUAUAUUGAUUAGUUUUGGAGUACUCGUGGUCG
# Outline: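 Library with all eight P1ex-region intron nucleotides randomised, intron inside the knt kanamycin-resistance gene on pET-22b(+), in E. coli BL21(DE3). Cells grew overnight at 37°C or 30°C on LB agar with or without 25 μg/mL kanamycin (plus 100 μg/mL carbenicillin, 50 μM IPTG, 0.2% rhamnose), in six replicate transformations. Pooled colonies were amplicon-sequenced on Illumina HiSeq 2500. DiMSum fitness is the error-weighted combination of wild-type-normalised replicate fold changes, kanamycin versus none.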
Sequence,self-splicing fitness (ln) (37 °C),self-splicing fitness (ln) (30 °C)
GACGAGCAAUAUUACGUUAC,-0.804 ± 0.25,–
GACGAGCAAUAUUACGUUGA,-1.5 ± 0.17,-2.36 ± 0.22
GACGAGCAAUAUUACGUUGC,-2.48 ± 0.24,-4.31 ± 0.3
GACGAGCAAUAUUACGUUUG,-1.94 ± 0.26,-3.1 ± 0.22
GACUAGCAAUAUUACGAACC,-0.0491 ± 0.19,-1.64 ± 0.17
GACUAGCAAUAUUACGAGUA,-0.253 ± 0.069,-0.991 ± 0.067
GACUAGCAAUAUUACGAUCC,-1.57 ± 0.2,-2.21 ± 0.18
GACUAGCAAUAUUACGAUGU,-1.53 ± 0.17,-2.24 ± 0.15
GACUAGCAAUAUUACGAUUA,-0.413 ± 0.082,-0.841 ± 0.069
GACUAGCAAUAUUACGCCCC,-0.904 ± 0.27,-0.792 ± 0.23
GACUAGCAAUAUUACGCGAC,-0.817 ± 0.27,-1.59 ± 0.28
GACUAGCAAUAUUACGCGCG,-0.349 ± 0.11,0.097 ± 0.11
GACUAGCAAUAUUACGCGCU,-0.878 ± 0.12,-0.916 ± 0.095
GACUAGCAAUAUUACGGAGA,-2.04 ± 0.19,-3.49 ± 0.23
GACUAGCAAUAUUACGGAGU,-2.87 ± 0.21,-4.2 ± 0.25
GACUAGCAAUAUUACGGUGU,-0.76 ± 0.1,-1.84 ± 0.098
GACUAGCAAUAUUACGUAAU,-0.482 ± 0.092,-1.31 ± 0.077
GACUAGCAAUAUUACGUAGG,-1.03 ± 0.11,-1.95 ± 0.091
GACUAGCAAUAUUACGUAUU,-0.646 ± 0.079,-1.11 ± 0.072
GACUAGCAAUAUUACGUCGG,-3.32 ± 0.24,-3.55 ± 0.21
GACUAGCAAUAUUACGUCUC,-0.484 ± 0.16,-1.46 ± 0.16
GAGAAGCAAUAUUACGAAAU,-1.63 ± 0.19,-3.17 ± 0.23
GAGAAGCAAUAUUACGAACG,-0.343 ± 0.17,-0.734 ± 0.12
GAGAAGCAAUAUUACGACAA,-0.365 ± 0.12,-0.787 ± 0.1
GAGAAGCAAUAUUACGAGUC,-1.78 ± 0.2,-2.11 ± 0.11
GAGAAGCAAUAUUACGAUAC,-0.221 ± 0.18,-1.73 ± 0.13

Sequence,self-splicing fitness (ln) (37 °C),self-splicing fitness (ln) (30 °C)
GAGAAGCAAUAUUACGCAUG,-1.04 ± 0.14,-1.99 ± 0.11
GAGAAGCAAUAUUACGCGAC,-1.38 ± 0.15,-2.78 ± 0.17
GAGAAGCAAUAUUACGCUAG,-0.805 ± 0.15,-1.66 ± 0.12
GAGAAGCAAUAUUACGCUGA,-1.29 ± 0.15,-1.49 ± 0.17
GAGAAGCAAUAUUACGCUUU,-2.76 ± 0.14,-3.35 ± 0.14
GAGAAGCAAUAUUACGGAGU,0.0737 ± 0.12,-3.2 ± 0.24
GAGAAGCAAUAUUACGGCGA,-0.777 ± 0.12,0.0811 ± 0.15
GAGAAGCAAUAUUACGGCUG,-0.161 ± 0.12,-0.733 ± 0.088
GAGAAGCAAUAUUACGGUAC,-1.54 ± 0.21,-2.92 ± 0.23
GAGAAGCAAUAUUACGGUGG,-2.93 ± 0.25,-2.14 ± 0.14
GAGAAGCAAUAUUACGUAGC,-0.876 ± 0.21,-3.47 ± 0.35
GAGAAGCAAUAUUACGUCCU,–,-1.59 ± 0.23
GAGAAGCAAUAUUACGUCGG,-2.35 ± 0.24,-3.32 ± 0.19
GAGAAGCAAUAUUACGUGAC,-1.29 ± 0.17,-2.18 ± 0.12
GAGAAGCAAUAUUACGUGGC,-0.933 ± 0.11,-3.59 ± 0.17
GAGAAGCAAUAUUACGUGUU,-1.53 ± 0.14,-2.43 ± 0.098
GAGCAGCAAUAUUACGAAAG,-1.93 ± 0.22,-3.71 ± 0.33
GAGCAGCAAUAUUACGACCG,-1.27 ± 0.15,-2.42 ± 0.12
GAGCAGCAAUAUUACGACGA,0.077 ± 0.17,-0.16 ± 0.15
GAGCAGCAAUAUUACGAGUG,-1.09 ± 0.19,-2.8 ± 0.17
GAGCAGCAAUAUUACGAUGC,-0.514 ± 0.11,-1.47 ± 0.092
GAGCAGCAAUAUUACGCCGA,-0.726 ± 0.18,-1.55 ± 0.17
GAGCAGCAAUAUUACGCUGC,-3.06 ± 0.27,-3.72 ± 0.18
GAGCAGCAAUAUUACGCUUA,-0.238 ± 0.11,-0.991 ± 0.077
GAGCAGCAAUAUUACGGACA,-1.53 ± 0.12,-2.64 ± 0.15
GAGCAGCAAUAUUACGGGGC,-2.52 ± 0.25,-3.57 ± 0.21

Sequence,self-splicing fitness (ln) (37 °C),self-splicing fitness (ln) (30 °C)
GAGCAGCAAUAUUACGGGUU,-2.02 ± 0.16,-2.44 ± 0.14
GAGCAGCAAUAUUACGGUUC,-1.9 ± 0.38,-3.92 ± 0.42
GAGCAGCAAUAUUACGUCCU,-0.134 ± 0.16,-0.165 ± 0.12
GAGCAGCAAUAUUACGUGGC,-1.63 ± 0.14,-3.71 ± 0.27
GAGCAGCAAUAUUACGUUAU,-1.3 ± 0.12,-1.77 ± 0.087
GAGGAGCAAUAUUACGAAAU,-1.14 ± 0.23,-3 ± 0.4
GAGGAGCAAUAUUACGAAUA,-3.08 ± 0.38,-3.68 ± 0.4
GAGGAGCAAUAUUACGAGAA,-2.44 ± 0.33,-1.98 ± 0.41
GAGGAGCAAUAUUACGAUGC,-1.21 ± 0.21,-2.85 ± 0.26
GAGGAGCAAUAUUACGAUUC,-1.65 ± 0.22,-3.4 ± 0.27
GAGGAGCAAUAUUACGCAUA,–,-1.86 ± 0.35
GAGGAGCAAUAUUACGCCGA,-1.77 ± 0.28,-1.95 ± 0.33
GAGGAGCAAUAUUACGGACC,-0.0508 ± 0.35,–
GAGGAGCAAUAUUACGGAUA,-2.33 ± 0.37,-3.62 ± 0.28
GAGGAGCAAUAUUACGGCCU,–,-1.99 ± 0.38
GAGGAGCAAUAUUACGGCUG,-1.88 ± 0.31,-1.48 ± 0.15
GAGGAGCAAUAUUACGGGUC,-3.24 ± 0.32,-2.98 ± 0.17
GAGGAGCAAUAUUACGGUAC,-2.14 ± 0.26,–
GAGGAGCAAUAUUACGGUGA,-1.49 ± 0.28,-3.55 ± 0.37
GAGGAGCAAUAUUACGUAUA,-2.74 ± 0.4,–
GAGGAGCAAUAUUACGUAUU,0.0104 ± 0.25,-3.47 ± 0.32
GAGGAGCAAUAUUACGUGGC,–,-3.34 ± 0.24
GAGGAGCAAUAUUACGUUAA,-1.65 ± 0.21,-2.94 ± 0.36
GAGGAGCAAUAUUACGUUCC,-2.82 ± 0.48,–
GAGGAGCAAUAUUACGUUUU,-1.56 ± 0.15,-2.16 ± 0.13
GAGUAGCAAUAUUACGAAAA,–,-2.8 ± 0.38
